# Laboratory results from a protein production outcome set (Wang et al. 2014).
# Experiment: label from the status in PepcDB records
row,Sequence,protein production
1,MEQIILDIIEFLKQFSYFGVVLALTFEFIPAEVVLPMVGYWVYEGDMNFWLAVLAGTLGGTTGPLTLYALGYYGGRPLLIKYGKYFFIKEEQIQKADDFFEKYGPVVAFVGRFVPGVRTLISVPCGMAKMNIWKFSIYTFVAMFPLTTLYVYFGMKLGPHWEKAADVVGQYMLPILGGVILIVASIFVYKYMKKRNKTESI,not failed
2,MEQKQQSERLGTEAIPKLLRSLSIPAMIGMFVMALYNVVDTIFISYAVGIEGVAGVTIAFPIMMIMMSMAGALGIGGASVISRRLGERRGEEANQVFGNILTVILVLSVIGFISAFTLLGPALQLFGATSVTQGYATDYLFPILLGSIFFFFAFAANNIIRSEGNATFAMVTMIVPAVLNILLDVLFIFGLNMGVLGASIATVIAQASVTGLVLRYFLTGKSTLSLHWSDLRMKGSVIKEVCLVGLPAFVQQSSASLMMIAINSMLLRFGSDFYVGVFGLVQRIMMFVMMPMMGIMQAMQPIVGYNYGAKQYSRLRETVMLGFKVATIFSIGIFALLMLFPEALLRVFTADREVIQAGVSAMHILFCVTFLIGAQIVAGGLYQSLGKPKQALILSLSRQIIFLIPLVLILPHIFGLSGVWWAFPIADVLSFILTVVLLYRDRNVFFLKTKEERELDLVKTASST,failed
3,MEQLSDSDHRDSADATTSSCQSTTAEDGQCGGGGEAMARGLSAMLESVIKDFDSKALDTLNSQDELSGSLDRLVQDYAQINPIDPIKFLNHYIAIGLTKLLKN,failed
4,MEQNNIKEQLISFFNQACSTHQERLDFICSTRESDTFSSVDVPLEPIKNIIEITKDENQQIEITKIAVNNIKTLSSVGATGQYMASFFSTNSEPAIIFCVIYFLYHFGFLKDNNKKQIIKKAYETIADNIADYLNEN,not failed
5,MEQPMKPTVIITGASSGVGLYGAKALIDKGWHVIMACRNLDKTQKVADELGFPKDSYTIIKLDLGYLDSVRRFVAQFRELGRPLKALVCNAAVYFPLLDEPLWSADDYELSVATNHLGHFLLCNLLLEDLKACPDADKRLIILGTVTANSKELGGKIPIPAPPDLGNFEGFEAGFKKPIAMINNKKFKSGKAYKDSKLCNMLTTRELHRRFHQETGIVFNSLYPGCVADTPLFRNHYSLFRTIFPWFQKNVTKGYVSQELAGERVAMVVADDKFKDSGVHWSWGNRQQAGREAFVQELSEQGSDAQKAQRMWDLSEKLVGLV,failed
6,MEQPYVYAYPQGSGPSGAPTPQAGGVVVDPKYCAPYPIDMAIVRKMMSLTDGNFVITDVNGNLLFKVKEPVFGLHDKRVLLDGSGTPVVTLREKMVSMHDRWQVFRGGSTDQRDLLYTVKRSSMLQLKTKLDVFLGHNKDEKRCDFRVKGSWLERSCVVYAGESDAIVAQMHRKHTVQSVFLGKDNFSVTVYPNVDYAFIASLVVILDDVNREDRAA,not failed
7,MEQRPYSLCLLRLSALGDITHVLPLVRTLQRERPQARLHWIIDTMGSKLMDGLDGIHFHVYDKHTGLRGMRALRAELTPLGHFDALLHMQVSLRANLLSAFVPAQRRIGYDHNRSKDLHGLFINERIPDNPGIHVLDAIGSFCEPLGLVQREVRWDLPVSEEARAWAWAQWNNDGRPVLMISPCSSHTHRNWQAKRYAAVAEHASAQGWRIVLCGGRSTLERQTADTILAQTQVPLLDMVGKDTLKQLPALLERADLVMTPDSGPMHIANALGKKVLGLHAASNPHRSGPYSDLRYCVNRYDAAAHKYLGKPSNMLKWGTKIESNGVMDLVTVEDAIAAFERYRADYAHH,failed
8,MEQYKLVLEGAKQLKWETNEIKDIQDDEIIVKTIAGSISIGAELPQYNGSDVTDPHPFYPRKTGYESYGEVIEVGNQVTHVNVGDKVVSFYGHETIGIVKAHKVIRVPSSIQPKIALLSILSCDAAKGVLKLNPRQDEKVLIIGMGVIGLLACYFLKYYVGIEHVDVVEPNKNRRDFAKKFGTKNIYDSEEKIIETYNYGFECSATNSGFHTLQKALKTNGKICILSDGNIEELTLTANFYQKELQIIGSSDGYDYQKHADWFFEEIGKTPFIEEIFQHEIHYTSLIQCFDELSLGIIKPLKVYVSYE,failed
9,MERDENYLRAKKRVENLKAFYIHLTVYILVNLMLFFINISSDSSKLWFLYPLAGWGIGIVIHALTTFPVGIFGKEWEERKIKEYMEKDK,failed
10,MERDTVLTATPTIDADLADATSCATPSRTAVSPLLPVLAALAAVVLWGGAFPAMKVAVQTLGTWQMMWARMVFALLLLVPLARRLAPARIERRDLPLLAGMALMQPCLYFLCESTALQLTTSSQAGVMAASMPLMMAVGGFLLGEKVSPRLWFGVGVSCIGVAWLTSSGGEGGGSAPDPFTGNLLELAAMACATGSSLCIGALISRGKGRWNALTLTGIQTLAGAVFFLPGAPGVIGGVADWSTEVLLAVVYLGGASSLGAFGLYNWALGHMPASRAGNFINLVPVAAIFFGWLLLGETLTTTQYLATGLVMGGVLMGTRAR,failed
11,MERGVDNWKVDCKCGTKDDDGERMLACDGCGVWHHTRCIGINNADALPSKFLCFRCIEL,not failed
12,MERHVNYTLIGGLFFLCLVCMVGFILWLGHLGLDDGKYYEYVVYTDKDLGGIATNSPINYKGIQVGNVIKVGFAKDKVGVVRLDLMIKSSVKIRKDSKVAVSSRGFMGLKFLALEQSHNEEFYGSGDKGERILIFKEGLMDRLSGDANQVVQEVMKAIRNVNRILDDENVEKFKHILASVDDLIANLDSRKTQFDSLISNANNLVSNVNNVALDVDKRLKQGQYDFKAMFTPLIMQAQLSLRNIDNFVEKGSALIDKFDANPYKTIFGERK,failed
13,MERKINRREKEKEYEGKHNSLEDTDQGKNCKSTLMTLNVGGYLYITQKQTLTKYPDTFLEGIVNGKILCPFDADGHYFIDRDGLLFRHVLNFLRNGELLLPEGFRENQLLAQEAEFFQLKGLAEEVKSRWEKEQLTPRETTFLEITDNHDRSQGLRIFCNAPDFISKIKSRIVLVSKSRLDGFPEEFSISSNIIQFKYFIKSENGTRLVLKEDNTFVCTLETLKFEAIMMALKCGFRLLTSLDCSKGSIVHSDALHFIK,failed
14,MERKKLIAKFVEIASEKMGKDLETVDEENTFKELGFDSIDVIDLVMFFEDEFALRIEDEEISKIRKVKDLIDIVIKKLEEIDDEVSEG,not failed
15,MERLAPAKVNLGLSVRFRREDGYHELHTLFAPFSLADRLVVEPVSSGLHFQGPYGRENLAYRAASLYLEAAGQPGGVRILLEKRIPEGAGLGGGSSDAAQVLLALQALYPAEVDLFALARTLGADVPFFLLGRGAEARGVGERLKPLALPPVPAVVFFPGLRVPTPLVYRAVRPEDFGPDLPVEAILEALARGEEPPYWNSLEGPAFRLFPELKEVRGRMRALGLRGVLMSGSGSAFFGLAEGPDHARRAAEALRAWGRAWAGTLGGGDAGSGPA,not failed
16,MERMMNKRILKGTLTAIAALMSAHAFAGQEVTVYTAFETDLLAKYKSAFEKENPDIEIKWVRDSTGIMTAKLLAEKDNPRAEVVWGLAGSSMALLKDQGVLKPYTPKGANELRANLNDPQAQQAWYGNDAFFNAVCFNEAVAKQLNLPKPQSWEDLTNPVYKGHIAMPNPASSGTGYMQVSAWLQNMGEDKAWDYMQRLDQNIAHYTHSGSKPCVQAGMGEVAIGISMATRGAKLKTQGAPLDVIVPNGIGWESEAVGLVKESDAAKRVVDWSVSKAANELYIESYPIVGHQDVSKQVPNYPNVEKVMAKMDFTQMGVDRARVLQTWSEKFDAKSEPKS,failed
17,MERQVLLSEPEEAAALYRGLSRQPALSAACLGPEVTTQYGGQYRTVHTEWTQRDLERMENIRFCRQYLVFHDGDSVVFAGPAGNSVETRGELLSRESPSGTMKAVLRKAGGTGPGEEKQFLEVWEKNRKLKSFNLSALEKHGPVYEDDCFGCLSWSHSETHLLYVAEKKRPKAESFFQTKALDVSASDDEIARLKKPDQAIKGDQFVFYEDWGENMVSKSIPVLCVLDVESGNISVLEGVPENVSPGQAFWAPGDAGVVFVGWWHEPFRLGIRFCTNRRSALYYVDLIGGKCELLSDDSLAVSSPRLSPDQCRIVYLQYPSLIPHHQCSQLCLYDWYTKVTSVVVDVVPRQLGENFSGIYCSLLPLGCWSADSQRVVFDSAQRSRQDLFAVDTQVGTVTSLTAGGSGGSWKLLTIDQDLMVAQFSTPSLPPTLKVGFLPSAGKEQSVLWVSLEEAEPIPDIHWGIRVLQPPPEQENVQYAGLDFEAILLQPGSPPDKTQVPMVVMPHGGPHSSFVTAWMLFPAMLCKMGFAVLLVNYRGSTGFGQDSILSLPGNVGHQDVKDVQFAVEQVLQEEHFDASHVALMGGSHGGFISCHLIGQYPETYRACVARNPVINIASMLGSTDIPDWCVVEAGFPFSSDCLPDLSVWAEMLDKSPIRYIPQVKTPLLLMLGQEDRRVPFKQGMEYYRALKTRNVPVRLLLYPKSTHALSEVEVESDSFMNAVLWLRTHLGS,failed
18,MERRLTTILAADLSGYSRLMAADEEGTVTRLRHLFADIVRPDLSREGGRLIKTMGDGMLVEFASPVAALRSAVAILQQVARDQVETAPDTRMLFRVGIHLGDVISDGDDILGDAVNIAARLESLATPGGICISRSVHDQVRGKVDAELIELGPQPVKNIPDPVEVWRVGAEGIACAAEKPAVRAELPAVVILPFDNMSADPEQDFLADGIVEDVTTELSRFRTLTVIARNSAFAYKGSHKDVRQIAEELGVRYVVEGSVRRAGDRLRATAQLIDARTGAHVWADRWDRTMADLFDLQDELTAAILSGVEPELGAHERNLARRKPTDSLTAWEMCQKGYSEFTRYTDEGYSQAHAYYTRAIAADPDFALPHALLARLAWVKVITGRTRDPAAEISTGLDHAAQAIERDDRLEIGYVALGVLLAITGREQDAADALDKAEALNPNNAVLHFGRCHACLFMQRLDCDRLERAARTALRLNPKDPMAWGFWFQLGNAFTFRDIDAAEPEALAAYETACRFANADYFVFMATALKHAKLGNRDKAAHYLAQARERYPALTAEFWRRAFRFPIWSRWVAADEPNIQLLIDLGLPQK,failed
19,MERVAVVGVPMDLGANRRGVDMGPSALRYARLLEQLEDLGYTVEDLGDVPVSLARASRRRGRGLAYLEEIRAAALVLKERLAALPEGVFPIVLGGDHSLSMGSVAGAARGRRVGVVWVDAHADFNTPETSPSGNVHGMPLAVLSGLGHPRLTEVFRAVDPKDVVLVGVRSLDPGEKRLLKEAGVRVYTMHEVDRLGVARIAEEVLKHLQGLPLHVSLDADVLDPTLAPGVGTPVPGGLTYREAHLLMEILAESGRVQSLDLVEVNPILDERNRTAEMLVGLALSLLGKRIF,not failed
20,MERYTKKNERFKAEEGKGSKKSRTFLTERERRALFNDRFFDLKNLIPNPTKGGEASIVQDGIVYINELQRLVSELKYLVEKKKCGARHNNIEVDNKNTIYGTSKIEHPFSKNKNTFNCLIRTLRFVHHF,failed
21,MESAPSRLDGDRPRLSVRLLGPLEILRDGVPLALPASRKLRALLAYLALAPHAVGRGRLCELLWDVPNDPRGELRWCLSKLRAALDTPDRRRVTTQGDAVALDLDGCLVDALEISQAAAQGIATLDVERLQGLAGLFAGDLLDGLELERSPHFDSWLVAQRRRFDAYHAAVLEQLAASLPADCDETVSRLDRWIELAPFDTRAHAALLASLARRGEIGAAEQHLASAERLFQSEDLDFAPLRQAWRSIRDQRASHQAQPAGLPTPSHLVAASGDTGPVEPSHASLAVMPFVDESGARGGLADGFTHDIITRLAKLRDFFVIARGSVFALAEKAIAPEEAGRKLGVDYVASGTVRSLTGRLIVSVELVEVRTARIVWAETFERRPHDLFAVLDDIGDSIVSSISAEIETVERNRAMLKAPNSLNAWEAYHRGLWHMYRFTQAENEQARHFFDKALQLDPTFARAYAGLSFTHWQNAFQRWGDRDRESALAYESAGHSLLVDDHNPAAHWAMGRALWLRGEQDGSLAELERAVDLSPNFALGHYALSFVHSQSGDPQAAIGSSDHSRHLSPFDPLLFGMLGSRAMSHVRLGQFEEAAEWALKAAARPNAHTIILAIAAHCLALAGRLDEARGFAAAIRKTLPDYRADDFIGTFRFDPDAEALFRQGARRIGFS,failed
22,MESESSGLSFPLGLYDAIIAHARSVFPEECCGLVAAPAGGAPIRVIPMENALHSPVRYEMNPKEQFQVQKNLRREGLEMWAIYHSHPVTRPYPSETDIRLAFYPELYYLLTSLAEDPPPLKAYTIQNGVVREIPLKVSPGES,failed
